Reference: publication PMC5154385 (ACS infectious diseases, 2015)

Legend:
[1] = system: NC[C@H]1O[C@H](O[C@H]2[C@H](O)[C@@H](O[C@H]3O[C@H](CO)[C@@H](O)[C@H](N)[C@H]3O)[C@H](N)C[C@@H]2N)[C@H](O)[C@@H](O)[C@@H]1O; assay: purified protein; conditions: co-substrate AcCoA fixed (printed 0.5 μM), pH 8.0, 25 °C
[2] = system: NC[C@@H]1O[C@H](O[C@H]2[C@@H](O)[C@H](O[C@@H]3[C@@H](O)[C@H](N)C[C@H](N)[C@H]3O[C@H]3O[C@H](CO)[C@@H](O)[C@H](O)[C@H]3N)O[C@@H]2CO)[C@H](N)[C@@H](O)[C@@H]1O; assay: purified protein; conditions: co-substrate AcCoA fixed (printed 0.5 μM), pH 8.0, 25 °C
Eis_Mab2 = Eis_Mab2 (Mycobacteroides abscessus, UniProt B1MKV6); assay: DTNB; type: biochemical

| Compound | Km [1] | kcat [1] | kcat/Km [1] | Km [2] | kcat [2] | kcat/Km [2] | IC50 (Eis_Mab2) |
| --- | --- | --- | --- | --- | --- | --- | --- |
| Eis_Mab2 (Mycobacteroides abscessus ATCC 19977) | 125 ± 27 µM | 0.124 ± 0.007 s⁻¹ | 992 ± 377 M⁻¹ s⁻¹ | 144 ± 14 µM | 2.83 ± 0.07 s⁻¹ | 19700 ± 1970 M⁻¹ s⁻¹ | – |
| [H]/N=C(\N/C(=N/[H])NCCCCCCNC(=N)NC(=N)Nc1ccc(Cl)cc1)Nc1ccc(Cl)cc1 [chlorhexidine] | – | – | – | – | – | – | 4.4 ± 0.9 µM |
